Data from the nanobody polyreactivity screen of Harvey et al. (2022).

Assay: yeast display, Sf9 membrane polyspecificity reagent, FACS + sequencing; frameworks hold sequencing errors
Outline: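 A nanobody's polyreactivity label depends on the gate it was sorted from. Yeast display cells were stained with 10% biotinylated, detergent-solubilized Sf9 membrane reagent for 1 hour at 4 °C, enriched on streptavidin microbeads and sorted by FACS. The low and high (top ~1%) gates were set on anti-HA fluorescence for expression and streptavidin fluorescence for reagent binding.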

Row | Sequence | polyreactivity (PSR sort gate)
1 | QVQLVESGGGLVQAGGSLRLSCAASGRTFGDYAMGGYRPAPGKESELVAAISRRGGNTYYADSVKGRFTISRDNAKNTVYLQMNSLKPDDTAVYDCAAVAYALGFASKEDYWGQGTQVTGSS | high polyreactivity
2 | QVQLVESGGGLVQAGGSLRLSCAASGSTFPKYGMGWYRQAPGKESEFVARINWNGGGTYYADSVKGRFTISRDNAKNTVYLQMNSLKPEDTAVYYCNARKRGARFILGYDYWGQGTQVTVSS | low polyreactivity
3 | QVQLVESGGGLVQAGGSLRLSCAASGSIFTVYDMGWYRQAPGKERELVAAIDSSGGSTYYADSVKGRFTISRDNAKNTVYLQMNSLKPEDTAVYYCAADGDTTSPTYYIFWSGEFDYWGQGTQVTVSS | low polyreactivity
4 | QVQLVESGGGLVQAGGSLRLSCAASGSIFLGYTMGWSRQAPGKERELVAAINSSGGSTYYADSVKGRFTISRDNAKNTVYLQMNSLKPEDTAVYYCAVANSILLFDSWGQGTQVTVSS | low polyreactivity
5 | QVQLVESGGGLVQAGGSLRLSCAASGFIFPYYAMGWYRQAPGKERELVAAISQSGGSTYYADSVKGRFTISRDNAKNTVYLQMNSLKPEDTAVYYCAKYIPSYHDGDYWGQGTQVTVSS | low polyreactivity
6 | QVQLVESGVGLVQAGGSLRLSCAASGSIFGPYAMGWSRQAPGKERELVAAISLGGGSTYYAASVKGRFTISRDNAKNTVYLQMNSVKPEDTAVYYCNAEFSSGPYGYNGFDYWGQGTQVTVSS | low polyreactivity
7 | QVQLVESGGGLVQAGCSLRLSCAASGSIFALYDMGWYRQAPGKERELVAAISYRGGRTYYADSVKGRFTISRDNAKNTVYLQMNSLKPEDTAVYYCATDFPGNFDYWGQGTQVTVSS | low polyreactivity
8 | QVQLVESGAGLVQAGGSLRLSCAASGFTFSRNAMGWYRPAPGKERELVASISGRGGRTYYADSVKGRFTISRDNAKKTVYLQMNSLKPEATAVYFCAARWRQRKSVRYGQQGYDYWGQGTQVTVSS | high polyreactivity
9 | QVQLVESGGGLVQAGGSLRLSCAASGFTFTSYAMGWYIQAPGKERELVAAINRSGGSTTYADSVKGRFTISRDNAKNTVYLQMNSQKPEDTAVYYCAKAFRGHYWGQGTQVTVSS | high polyreactivity
10 | QVQLVESGGGLVQAGGSLRLICAASGITFAWYAMGWYRQAPGKERELVAAIDDRGGSTYYADSVKWRFTISRDNAKNTVYLQMYSLKPEDTAVYYCNADTPSYEPYRLDYLGQGTQVTVSS | low polyreactivity
11 | QVQLVESGGGLVQAGGSLRLSCAASGSIFYQYAMGWYRQAPGKERELVAAISQNGGRTYYADSVKGRFTISRDNAKNKVYLQMNRLKPEDTAVYYFAARHAPTRYGYWGQGTEVTVSS | high polyreactivity
12 | QVQLVESGGGLVQAGGSLRLSCAASGSTFYDYAMGWYRQAPGKERELVAAITSGGSTDYADSVKGRFTISRDNAKNTVYLQMNSLKPEDTAVYYCATDTDSNYISHQFVWYDYWGQGTQVTVSS | low polyreactivity
13 | QVQLVESGGGLVQAGGILRLSCAASGGIIAINAMGWYRQAPGKERELVAAISWGDGITYYADSVKGRFTISRDNEKNTVYLQMNSLKPEDTAVYYCAADEDEYRGGDESWGQGTQVTVSS | low polyreactivity
14 | QVQLVESGGGLVQAGGSLRLSCAASGRIFIAYTMGWYRPAPGKERELVAAITWNGGSTYYADSVKGRFTISRDNAKNTVYLQMNSLKPEDTAVYYWVVVSRPGPKPAREMDYWGQGTQVTVSS | low polyreactivity
15 | QVQLVESGGGLVQAGGSLRLSCAASGITFYSYAMGWYRQAPGKEMELVAAITRSGGSTYYADSVKGRFTISRDNAKNTVYLQMISLKPEDTAVYYCAAEEGRVFSGGYEYWGQGTQVTVSS | high polyreactivity
16 | QVQLVESGGGLVQAGGSLRLSCAASGRIIWANTMGCYRQAPGKEREFVAAISWSTDSTYYADSVKGRFTISRDNAKNTVYFQMNSLKPEDTAVYYCNARAGYPWGVFYVTYVYWGQGTQVTVSS | low polyreactivity
17 | QVQLVETGGGLVQAGGSLRLSCAASGITFFRNAMGWYRQAPGKERELVAAISRGGGSTYYADSVKGRFTISRDNAKKTVYLQMNSLKPEDTAVYYCAEYKYGTGVKMDYWGQGTQVTVSS | high polyreactivity
18 | QVQLVDSGGGLVQAGGSLRLSCAASGRTISKYAMGWNRQAPVKERELVAAITGSGGSTHYADSVKGRFTISRDNAKNTVYLQMNSLKPEDSAVYYCAAVPRYQYGYWGQGTQVTVSS | low polyreactivity
19 | QVQLVESGGGLVQAGGSLRLSCAASGFTFYSNSMGWYRQAPGKERELVAAISSGGGTTYYADSVKGRFTISRDNAKNTVYLQMNSLKPEYTAVYYCAAGLSFFRSYSGFYYWGQGTQVTVSS | low polyreactivity
20 | QVQLVESGGGLVQPRGSLRLSCAASGSILGHYAMGWYRQAPGKERELVAAISWRGGTTYYADSVKGRFTISRDNAKNTVYLQMNSLKPEDTAVYYCNADVWVYPYDYWGQGTQVTVSS | low polyreactivity
21 | QVQLVESGGGLVQAGGSLRLTCAASGRTFRNYAMGWYRQAPGKEREMVAAISRSGGITYYADSVKGRFTISRDNAKNTVYLQMNSLKPEDTAVYYCAARHSYQGPGTYPMYYWGQGTQVTVTS | high polyreactivity
22 | QVQLHESAGGLEQAGGCLSCTASGTIFGQGDMCWYLQAPGKEPELVGTINDGASTYYADSVKGRFTISRDKAKNTVYLQKNSLKPADTAVYYCSVFTDITTYFGYWGQGTQVTVSS | low polyreactivity

Row | Sequence | polyreactivity (PSR sort gate)
23 | QVQLVESGGGLVQAGGSHRLSCAASGLTFSKYAMGWYRQAPGKERELVAAIRRSGGSTYYADSVKGRFTISRDNAKNTVYLQMNSLKPEDTAVYYCAADNYRYWNILRDYWGQGTQVTVSS | low polyreactivity
24 | QVQLVESGGGLVQAGGSLRLSCAASGIIFYDYAMGWYRQAPGKERELVAAITSNGDNTYYADSVKGRFTISRDNAKNTVYLQMNSLKPEDTAVYYCAVDGSFAADFDNYLEEYGYWGQGTQVSVSS | low polyreactivity
25 | QVQLVESGGGLVQAGGSLRLSCAASGSIFTYNTMGWYRQAPGKERELVATISWSGGRTYYADSVKGRFTISRDNAKNTVYLQMNSLKPEDTAVYYCAAGYYYGYPPRDYWGQGSQVTVSS | high polyreactivity
26 | QVQLVESGGGLVQAGGSLRLSCAASGSTFYKYAMGWYRQAPGKERELVARISRGGGSTYYADSVKGRFTISRDNAKNTVYLQMNSLKPEDTAVYYCAAGVRGQNDGYYWGQGTEVTVSS | high polyreactivity
27 | QVQLVESGRGLFKAGGSLRLSCAASGSIFDGNAMGWYRQAPGKERELVATMSWCGGSTYYADSVKGRFTISRDNSKNNVYLQMYSVNPEETAVYHCGKTPYRRYRYGGYTYSTYDYWGQGTQVTVSS | low polyreactivity
28 | QVQLVESGGGLVQAGGSLRLSCAASGSIFGNNAMGWYRQAPGKERELVATISYSGDSTYYADSVKGRFTISRDNAKNTVYLQMNSLKPEDTAVYYCAKQSDWVYKDRAYDYWGQGTQVTVSS | low polyreactivity
29 | QVQVVESGGGLVQAGGSLRLSSAASGSTFNYNAMGWYRQAPGKERELVAAITNGGSTSYADSVKGRFTISRDNAKNTVYLQMNSLKPEDTAVYYCNADEDLRGYDYWGQGTQVTVSS | low polyreactivity
30 | QVQLQESGGSLVQAGGSLRLSCSASGNILVLPHGLVSPGAERELVATITGGSITYYADSEKGRFTISRDNAKNTVYLQMNSLKPGDTAVYYCAVINIYHRPHPYWGQGTLVTVSS | high polyreactivity
31 | HVQRVESGGGLVQAGASLRLSCAASGGIFSPNAMGWYRQAPGKERELVAAISSNGGSTNYADSVKGRFTISRDNAKNTVYLQMNSLKPEDTAVYYCAGLQKRRSYWRPFYWGQGTQVTVSS | low polyreactivity
32 | QVQLVESGGGLVQAGGSLRLSCAASGRTFYGYAMGWYREAPGKERELVASISWSTGSTHYADSVKGRFTISRDNAKNTVYLQMNSLKPEDTAVYYCAAPFWRDSYVQIDYDYWGQGTQVTVSS | low polyreactivity
33 | QVQLVESGGGLVQAGGSLRLSCAASGSTFNRNTMGWYRQAPGKERELVAAITSSGGRTYYADSVKGRFTISRDNAKNTVFLQVNSLKPEDTAVYYCATVNRVLIAGRFDSWGQGTQVTVSS | high polyreactivity
34 | QVQLVESGGGLVQAGGSLRLSCAASGSTFQIYAMGWYRQPPGKDRELVAANTSSSSTNYADSVKGRFTISRENAKNTVYLQMNSLKPEDTAVYYCAAAVSWRSNWYDYWGQGTQVTVSS | low polyreactivity
35 | QVQLVESGGGLVQAGGSLRLSCAASGRIFSRYAMGWYRQAPGKERELDAAINKSGGSTYYADSVKGRFTISRDNAKHTVYLQMNSLKPEDTAVYYCAADGRLRGYGYWGQGTQVTVSS | high polyreactivity
36 | QVQLVESGGGLVQAGGSLRLSCAASGRIFTYYAMGWYRQAPGKERELVAAINGRGGRTYYADSVKGRFTISRDNAKNTVYLQMNSLKPEDTAVYYCAARGYAPDTYGYWGQGTQVTVSS | high polyreactivity
37 | QVQLVESGGGLVQAGGSLRLSCAASGFIFNINTMGWYRQAPGKERELVAAITLNGDGTYYADSVKGRFTISRDNAKNTVDIQMNSLNPADTAVDYCNAATWYYYYVSRETYYFDVDYWGQGTQVTVSS | low polyreactivity
38 | QVQLVESGGGLVQAGGSLRLSCAASGIFRRYAMGWYRQAPGKERELVAAISSSGGSTDYADSVKGRFTISRDNAKNTVYLQMNSLKPEDTAVYYCNAYDQHGWWCYAYDYWGQGTQVTVSS | high polyreactivity
39 | QVQLVESGGGLVQAGGSLRLSCAASGRTFYTNAMGWYRQAPGKERELVAAITRGGSTYYADSVKGRFTIPRDNAKNTVYLQMYSLKPEDTAVYYCAAAYASSWRQRVTSEKGYYWGQGTQVTVSS | high polyreactivity
40 | QVQLVESGGGLVQAGGSLRLSCAASGRTFSVNDMGWYRQAPWKEREFVAAISFSGGSTYYADSVKGRFTISRDNAKNTVYLLMNSLKPEDSAVYYSAAEAYPSWFYVITGFGIYDYWGQGTQVTGSS | high polyreactivity
41 | QVQLVESGGGLVQAGGSLRLSCAASGRTFLYNAMGWYRQAHGKERELVAAIDQSGGSTYYADSVKGRFTISRDNAKNTVYLQMNSLKPEDTAVYYCAAYWEGSWYYKKYYYWGQGTQVTVSS | high polyreactivity
42 | QVQLVESGGGLVQAGGSLRLSCAASGSTFPVNAMGWYIQAPGKERELVARIRGSGGSTYYADSVKGRFTISRDNAKNTVYLQMNSLKPEDTAVYYCNADPVRSGLDYWGQGTQVTVSS | high polyreactivity
43 | QVQLVESGGGLVQAGGSLRLSCAASGSIFELYAMGWYRQAPGKDRELVASITWSSSNTHYADSVKGRFTISRDNAKNTVYLQMNSMKPEDTAVYYCAKDVLYGQFDGDSWGQGNQVTVSS | low polyreactivity
